Assay [1] concerns the target T1, Lassa NPc (C-terminal portion of NP encoding residues 341-569) (Lassa virus lineage IV, strain Josiah, UniProt P13699).
T1 construct: source: bought: Zalgen (recombinant)
Put plainly: SPR; ProteOn XPR36; […] (20 ug/mL in 10 mM sodium acetate pH 5.0); […]. To be noted: both partners purified.

Assay [2] has as its target T2, Lassa NPn (N-terminal portion of NP encoding residues 1-340) (Lassa virus lineage IV, strain Josiah, UniProt P13699).
T2 construct: source: bought: Zalgen (recombinant)
Description: SPR; ProteOn XPR36; […] (20 ug/mL in 10 mM sodium acetate pH 5.0); […]; Langmuir model. To be noted: both partners purified. In general terms: In SPR one partner is held on a chip, and binding of the other changes the refractive index at the surface.

In general, Kd refers to a measure of binding affinity in units of concentration. Low readings indicate a tighter complex, high ones a looser complex. Usually koff stands for the first-order rate constant of dissociation. A higher koff goes with a short-lived complex. What is called kon is a measure of how fast the partners come together. A high value points to fast association.

T2 sequence (P13699 1-340): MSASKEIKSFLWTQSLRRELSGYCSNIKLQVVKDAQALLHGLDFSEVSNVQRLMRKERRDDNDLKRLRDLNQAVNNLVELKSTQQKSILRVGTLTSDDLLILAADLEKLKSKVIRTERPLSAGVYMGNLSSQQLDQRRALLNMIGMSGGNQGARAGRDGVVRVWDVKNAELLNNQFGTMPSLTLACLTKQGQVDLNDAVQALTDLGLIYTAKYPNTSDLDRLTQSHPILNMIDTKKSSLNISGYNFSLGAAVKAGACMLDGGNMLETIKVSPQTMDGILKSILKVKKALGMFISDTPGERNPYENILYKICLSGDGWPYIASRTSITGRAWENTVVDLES
T1 sequence (P13699 341-569): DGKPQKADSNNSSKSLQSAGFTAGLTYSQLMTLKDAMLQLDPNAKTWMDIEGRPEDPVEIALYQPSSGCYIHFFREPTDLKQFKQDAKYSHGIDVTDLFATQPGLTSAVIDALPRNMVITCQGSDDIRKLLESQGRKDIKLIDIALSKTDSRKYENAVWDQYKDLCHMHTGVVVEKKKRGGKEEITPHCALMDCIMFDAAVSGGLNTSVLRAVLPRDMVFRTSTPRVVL

B1: sdAb E10 (VHH)
VHH: DVQLQASGGGLVQAGASLRLSCAASGFTYTMGWFRQAPGQEREFVAAIARSGGTTYYTDSVKGRFTISRDNAKKTVFLQLNSLKPEDTAVYYCAADALPYSAQSMSTRNPGYWGQGTQVTVSS
notes: source: E. coli Tuner (DE3), periplasmic, purified (osmotic shock, IMAC, gel filtration)
Regarding B1, the binding result in assay [1] was “no binding”. In assay [2], this molecule yielded a Kd of 69 nM, a koff of 0.13 s⁻¹ and a kon of 1.9e+06 M⁻¹ s⁻¹.

B2: sdAb G11 (VHH)
VHH: DVQLQASGGGLVQAGDSLTLSCAASGRTVSPYGVGWFRQAPGREREFVAALSRSGTFTAYADSVKGRFTISRDNAKNTVYLQMNSLKPDDTAVYHCAARSASSYYSTYRKEDDYHYWGQGTQVTVSS
notes: as for B1
Consider B2, for which the binding result in assay [1] was “no binding”. In assay [2], binding was put at a Kd of 184 nM, the dissociation rate constant (koff) worked out at 0.07 s⁻¹ and the kon is 380000 M⁻¹ s⁻¹.

B3: sdAb E1 (VHH)
VHH: DVQLQASGGGLVQTGGSLRLSCENSGRALRIMGWFRQAPGKEREFVATINRNGESTYYSDSVKGRFTISRDNNKNTVYLQMNNLKPEDTGVYNCAADRPGPTQIKTRADDYDYWGEGTQVTVSS
notes: also called clone E1; source: E. coli Tuner (DE3), periplasmic, purified (osmotic shock, IMAC, gel filtration)
Consider B3, for which the binding result in assay [1] and in assay [2] was “no binding” each time.

B4: sdAb B5 (VHH)
VHH: EVQLQASGGGLAQPGGSLRLSCAASGFTLVYYGIGWFRQAPGKEREGVSCISSNDGSTYYADSVKGRFTISRDAAKNTVYLQMNSLKPEDTAVYYCATELGNTHRGSFFPNRRVERCRTDDFASWGQGTQVTVSS
notes: as for B1
On to B4, for which, in assay [1], the binding result is on record as “no binding”. Also, in assay [2], binding was characterised by a dissociation constant (Kd) of 19 nM, the koff was determined as 0.0061 s⁻¹ and the kon came out at 320000 M⁻¹ s⁻¹.

B5: sdAb C7 (VHH)
VHH: EVQLQASGGGLVQPGGSLRLSCVASGFTLVYYGIGWFRQAPGKEREGVSCISSNDGSTYYADSVKGRFTISRDAAKNTMYLQMNSLKPEDTAVYYCATELGNTHRGSFFPNRRVERCRTDDFASWGQGTQVTVSS
notes: as for B1
As for B5, the binding result in assay [1] is “no binding”. In assay [2], this molecule came in with an equilibrium dissociation constant (Kd) of 7.5 nM, an off-rate (koff) of 0.0038 s⁻¹ and a kon of 510000 M⁻¹ s⁻¹.

B6: sdAb E11 (VHH)
VHH: EVQLQASGGGLAQPGGSLRLSCAASGFTLVYYGIGWFRQAPGKEREGVSCISSNDGTTYYADSVKGRFTISRDNAKNTVYLQMNSLKPEDTAVYYCATELGNTHRGSYFPKQRVERCHTGDFASWGQGTQVTVSS
notes: as for B1
As for B6, in assay [1], the binding result is given as “no binding”. For the same molecule, in assay [2], the affinity, expressed as Kd, was 57 nM; the koff worked out at 0.0076 s⁻¹; the kon was found to be 150000 M⁻¹ s⁻¹.

B7: sdAb H6 (VHH)
VHH: DVQLQASGGGVVQPGGSLRLSCVASGFTLVYYGIGWFRQAPGKEREGVSCISSNDGSTYYADSVKGRFTISRDAAKNTVYLQMNSLKPEDTAVYYCATELGNTHRGSFFPNRRVKRCRTDDFASWGQGTQVTVSS
notes: also called clone H6; Bt-H6; source: E. coli Tuner (DE3), periplasmic, purified (osmotic shock, IMAC, gel filtration)
As to B7, the binding result in assay [1] was “no binding”. In addition, in assay [2], the Kd came out at 9.3 nM, the off-rate (koff) came out at 0.0057 s⁻¹ and the kon is 610000 M⁻¹ s⁻¹.

B8: sdAb F3 (VHH)
VHH: DVQLQASGGGLVQPGGSLRLSCAASGFTLVYYGIGWFRQAPGKEREGVSCISSYDGTTYYADSVKGRFTISRDNAKNTVYLQMNSLKPEDTAVYYCATELGNTHRGSYFPKQRVERCHTGDFASWGQGTQVTVSS
notes: as for B1
Take B8: the binding result in assay [1] was “no binding”. In assay [2], this molecule showed a Kd of 7.5 nM, a koff of 0.003 s⁻¹ and an on-rate constant (kon) of 400000 M⁻¹ s⁻¹.
